# In paper PMC5760668, “Structure function and engineering of multifunctional non-heme iron dependent oxygenases in fungal meroterpenoid biosynthesis” (Nature Communications, 2018):
# T1: PrhA-(6P-A298), N-terminal truncated and C-terminal chimeric PrhA (Penicillium brasilianum, UniProt A0A1E1FFL0, E295I/A296S/P297S/S298A)
# T1 construct: crystal construct PrhA-(6P-A298): residues from Pro6, C-terminal Glu295-Val301 replaced by AusE Ile295-Ser296-Ser297-Ala298, in pET28a, EDTA-treated; homodimer; Asp276′ of the other chain contacts substrate
# T1 sequence (A0A1E1FFL0 6-298 E295I/A296S/P297S/S298A): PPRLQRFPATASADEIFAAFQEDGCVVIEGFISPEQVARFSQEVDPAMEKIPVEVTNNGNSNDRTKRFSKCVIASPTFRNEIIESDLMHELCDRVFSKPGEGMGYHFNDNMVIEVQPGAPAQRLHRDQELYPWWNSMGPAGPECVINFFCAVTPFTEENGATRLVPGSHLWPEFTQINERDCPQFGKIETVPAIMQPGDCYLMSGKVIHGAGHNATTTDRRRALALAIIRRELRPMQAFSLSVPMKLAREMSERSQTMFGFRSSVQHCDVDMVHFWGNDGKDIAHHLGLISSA
# T2: AusE-(6P-A298) (Aspergillus nidulans, UniProt Q5AR34)
# T2 construct: crystal construct, N-terminal truncated 6P-A298 in pET28a, E. coli, EDTA-treated, Mn(II) reconstituted; homodimer
# T2 sequence (Q5AR34 6-298): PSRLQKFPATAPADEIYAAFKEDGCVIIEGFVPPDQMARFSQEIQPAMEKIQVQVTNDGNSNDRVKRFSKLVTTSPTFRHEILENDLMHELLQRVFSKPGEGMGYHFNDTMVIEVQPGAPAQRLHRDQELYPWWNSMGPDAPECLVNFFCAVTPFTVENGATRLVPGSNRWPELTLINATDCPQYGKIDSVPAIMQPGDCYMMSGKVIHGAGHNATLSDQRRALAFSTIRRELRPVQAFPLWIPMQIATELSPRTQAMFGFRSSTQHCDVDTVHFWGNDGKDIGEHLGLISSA
# B1: N-terminal truncated and C-terminal chimeric PrhA-(6P-A298) (enzyme)
# chain: T1 sequence (A0A1E1FFL0 6-298 E295I/A296S/P297S/S298A)
# notes: PrhA, Fe(II)/αKG-dependent oxygenase of paraherquonin biosynthesis, Penicillium brasilianum; from P6 up to the residue before Glu295 (Glu295-Val301 were replaced); AusE, Aspergillus nidulans, residues Ile295-Ser296-Ser297-Ala298, put in place of PrhA Glu295-Val301; Crystallised as apo form; Fe(II), αKG and preaustinoid A1 (5) were soaked in; also called PrhA-Fe; PrhA-Fe/αKG; source: E. coli …
# B2: wild-type PrhA (PrhA-(M1-V301)) (enzyme, Penicillium brasilianum, UniProt A0A1E1FFL0 1-301, looked up)
# chain: MAPMIPPRLQRFPATASADEIFAAFQEDGCVVIEGFISPEQVARFSQEVDPAMEKIPVEVTNNGNSNDRTKRFSKCVIASPTFRNEIIESDLMHELCDRVFSKPGEGMGYHFNDNMVIEVQPGAPAQRLHRDQELYPWWNSMGPAGPECVINFFCAVTPFTEENGATRLVPGSHLWPEFTQINERDCPQFGKIETVPAIMQPGDCYLMSGKVIHGAGHNATTTDRRRALALAIIRRELRPMQAFSLSVPMKLAREMSERSQTMFGFRSSVQHCDVDMVHFWGNDGKDIAHHLGLEAPSVHV
# notes: PrhA, Fe(II)/αKG-dependent oxygenase, Penicillium brasilianum; It may have been the chimeric 6-298 crystallisation construct; also called recombinant PrhA; source: E. coli Rosetta 2(DE3)pLysS, purified (HisTrap HP, HiTrap Q HP, Superdex 200)
# B3: wild-type AusE (AusE-(M1-A298)) (enzyme, Aspergillus nidulans, UniProt Q5AR34 1-298, looked up)
# chain: MGSATPSRLQKFPATAPADEIYAAFKEDGCVIIEGFVPPDQMARFSQEIQPAMEKIQVQVTNDGNSNDRVKRFSKLVTTSPTFRHEILENDLMHELLQRVFSKPGEGMGYHFNDTMVIEVQPGAPAQRLHRDQELYPWWNSMGPDAPECLVNFFCAVTPFTVENGATRLVPGSNRWPELTLINATDCPQYGKIDSVPAIMQPGDCYMMSGKVIHGAGHNATLSDQRRALAFSTIRRELRPVQAFPLWIPMQIATELSPRTQAMFGFRSSTQHCDVDTVHFWGNDGKDIGEHLGLISSA
# notes: AusE, Fe(II)/αKG-dependent oxygenase, Aspergillus nidulans; It may have been the 6-298 crystallisation construct; also called recombinant AusE; source: E. coli Rosetta 2(DE3)pLysS, purified (HisTrap HP, HiTrap Q HP, Superdex 200)
# B4: N-terminal truncated AusE-(6P-A298) (enzyme, Aspergillus nidulans, UniProt Q5AR34 6-298, looked up)
# chain: T2 sequence (Q5AR34 6-298)
# notes: AusE, Fe(II)/αKG-dependent oxygenase of austinol biosynthesis, Aspergillus nidulans; residues P6-A298, cloned NdeI/BamHI into pET28a; Crystallised with Mn(II), and with Mn(II) and αKG; also called AusE-Mn; AusE-Mn/αKG; source: E. coli Rosetta 2(DE3)pLysS, purified (HisTrap HP, HiTrap Q HP, EDTA treatment, Superdex 200)
# How the values were obtained:
# [1] = target: T1, PrhA-(6P-A298), N-terminal truncated and C-terminal chimeric PrhA; test: X-ray crystal structure; format: binding; details: Fe(II); crystal soaked with αKG; co-substrate, bidentate chelation
# AusE-(6P-A298) = target: T2, AusE-(6P-A298); test: X-ray crystal structure; format: binding; details: Mn(II), anaerobic; co-substrate
# [2] = target: the molecule itself; test: crystal structure; anaerobic vapor diffusion at 20 °C; AusE with MnCl2 (and αKG); PrhA and mutants crystallised as apo form and soaked with FeSO4, αKG and substrate; homodimer in the crystal
# [3] = target: the molecule itself; test: dynamic light scattering; purified enzymes; monomodal distribution, polydispersity 18.2 and 21.1%; predicted masses compared with the calculated 35.1 kDa
molecule,measurement,setting,value
O=C(O)CCC(=O)C(=O)O [α-ketoglutarate],X-ray crystal structure,[1],in complex with Fe(II) and αKG (PrhA-Fe/αKG)
same,X-ray crystal structure,AusE-(6P-A298),X-ray crystal structures of AusE complexed with Mn(II) and αKG (AusE-Mn/αKG)
B1,stoichiometry N,[2],2
B2,stoichiometry N,[3],2
B3,stoichiometry N,[3],2
B4,stoichiometry N,[2],2
